# Data as given in paper PMC5131891, “Structural Insights into Streptococcal Competence Regulation by the Cell-to-Cell Communication System ComRS” (PLoS Pathogens, 2016).
# Like-named read-outs stand apart in the source and are kept apart here. Peptide text beside a SMILES is read from it.
# T1: ComR WT (Streptococcus thermophilus LMD-9, UniProt PDB:5JUB_1 1-310)
# T1 sequence: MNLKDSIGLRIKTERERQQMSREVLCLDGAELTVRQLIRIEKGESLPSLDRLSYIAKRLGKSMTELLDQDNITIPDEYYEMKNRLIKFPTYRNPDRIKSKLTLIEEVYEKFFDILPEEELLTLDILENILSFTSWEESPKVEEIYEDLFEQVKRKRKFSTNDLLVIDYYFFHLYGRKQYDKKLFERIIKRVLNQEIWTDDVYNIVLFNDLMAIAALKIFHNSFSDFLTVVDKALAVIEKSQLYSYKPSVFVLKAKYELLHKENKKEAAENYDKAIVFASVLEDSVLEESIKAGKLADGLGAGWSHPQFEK
# B1: PcomX ComR-box (20 bp) (dsDNA)
# DNA 1: TAGTGACATATATGTCTCTA
# DNA 2: TAGAGACATATATGTCACTA
# Columns and labels:
# ComR WT [1] = target: ComR WT (Streptococcus thermophilus, UniProt A0A1L1QK15); assay: biochemical; format: binding, Streptococcus thermophilus LMD-9; details: for Kd: Table 2 (WT and variant XIPs), ITC, 20°C, 20 mM Tris-HCl pH 8.0, 150 mM NaCl, 1 mM EDTA, 50 μM protein in cell, 500 μM peptide in syringe, one-binding-site model, apparent KD, read-out: KD
# Experimental: Purification of ComR-StreptagII proteins (StreptagII at C-terminus) was performed as described previously with some modifications. E. coli strain BL21 Gold cultures were grown in 2YT medium at 15°C until an OD600 of ~ 0.5, cooled down on ice for 10 minutes, and induced by addition of 0.2% of L-arabinose (wt vol^-1) before continuous shaking at 28°C for 4 h. Cells were then harvested by centrifugation (5,000 × g during 15 min at 8°C). The pellets were resuspended in cold buffer W (100 mM Tris-HCl pH 8.0, 150 mM NaCl, 1 mM EDTA) supplemented with 0.5 mg ml^−1 of lysozyme, incubated for 30 min at 4°C, and sonicated at 4°C. […] For structural and biophysical analyses, the purification protocol was completed by a size exclusion chromatography step using a HiLoad 16/600 Superdex 75 prep grade column (GE Healthcare) equilibrated in buffer W plus 10% (vol vol^-1) glycerol. Purified proteins were aliquoted, flash frozen and conserved at -20°C. Their purity was visualized by SDS-PAGE and their concentrations were measured using a Nanodrop apparatus (protein A280 method) (ThermoFisher Scientific).
# Isothermal titration calorimetry (ITC) experiments were performed at 20°C in 20 mM Tris-HCl pH 8.0, 150 mM NaCl, 1 mM EDTA with an ITC200 calorimeter (Microcal). The protein concentration in the microcalorimeter cell and the peptide concentration in the syringe were set at 50 μM and 500 μM, respectively. A first injection of 0.4 μl, which was not taken into account for the fitting, was followed by 20 injections of 2 μl at intervals of 180 s. The peptide concentration used in the calculations is based on the weight of the lyophilized peptide and is therefore inaccurate because there may be a significant quantity of bound water, and salts or counter ions. However, the calculated number of binding sites, n, is always close to 1, in agreement with the 1:1 ratio observed in the crystal structure of the ternary complex. […] The data were analyzed using the MicroCal Origin software provided by the manufacturer. […] It was therefore not possible to distinguish the two events and the fitting was performed with the one-binding-site model. The calculated KD are therefore apparent values.
# [2] = system: ComR from S. thermophilus; design: method as in 2 sources, ref [30] = [30]; PMID 23323845; doi:10.1111/mmi.12157; 30 Fontaine L , Goffin P , Dubout H , Delplace B , Baulard A , Lecat-Guillet N , et al Mechanism of competence activation by the ComRS signalling system in streptococci . Mol Microbiol . 2013; 87 ( 6 ||| ref [29] = [29]; PMID 20023010; doi:10.1128/JB.01251-09; 29 Fontaine L , Boutry C , de Frahan MH , Delplace B , Fremaux C , Horvath P , et al A novel pheromone quorum-sensing system controls the development of natural competence in Streptococcus thermophilu; details: cited from earlier work; for in vivo activation efficiency / activation of ComR: previous analysis, ComR from S. thermophilus, ref [30]; for activity of heptapeptide ComS18-24: previous study, lacking the N-terminal Leucine, ref [29]
# [3] = target: ComR from Streptococcus thermophilus LMD-9 (ComR-StreptagII, wild type) (Streptococcus thermophilus LMD-9); assay: ITC; peptide 500 μM in the syringe, ComR 50 μM in the cell; 20°C; 20 mM Tris-HCl pH 8.0, 150 mM NaCl, 1 mM EDTA; one-binding-site model; apparent KD (peptide binding and dimerization not told apart)
# ComR WT [4] = target: T1, ComR WT; assay: X-ray crystallography; XIP (LPYFAGCL); 0.1 M MgCl2 in crystallization; EMSA: 20 mM Tris-HCl pH 8.0, 150 mM NaCl, 1 mM EDTA, 10% glycerol, 1 mg/ml BSA, 37 C 10 min, 40 ng DNA in 20 ul; crystal: 30% PEG 550 MME, 0.1 M MgCl2, 0.05 M Tris-HCl pH 8.5, 18 C; details: protein: recombinant; tags: C-terminal StreptagII; chain copies: 2; blunt
# [5] = target: ComR T90A (ComR-StreptagII mutant) (Streptococcus thermophilus LMD-9); assay: ITC; peptide 500 μM in the syringe, ComR 50 μM in the cell; 20°C; 20 mM Tris-HCl pH 8.0, 150 mM NaCl, 1 mM EDTA; one-binding-site model; apparent KD (peptide binding and dimerization not told apart)
# [6] = target: ComR from Streptococcus thermophilus LMD-9 (ComR-StreptagII, wild type) (Streptococcus thermophilus LMD-9); assay: as above; remark: listed apart in the source
# [7] = target: ComR K100A (ComR-StreptagII mutant) (Streptococcus thermophilus LMD-9); assay: as above
# [8] = target: ComR F171A/Y174A (ComR-StreptagII double mutant) (Streptococcus thermophilus LMD-9); assay: as above
# [9] = target: ComR R92A (ComR-StreptagII mutant) (Streptococcus thermophilus LMD-9); assay: as above
# [10] = target: ComR K87A/K246A (ComR-StreptagII double mutant) (Streptococcus thermophilus LMD-9); assay: as above
# [11] = target: ComR Y91A (ComR-StreptagII mutant) (Streptococcus thermophilus LMD-9); assay: as above
molecule,measurement,setting,value
CC(C)C[C@H](NC(=O)[C@H](CS)NC(=O)CNC(=O)[C@H](C)NC(=O)[C@H](C)NC(=O)[C@H](Cc1ccc(O)cc1)NC(=O)[C@@H]1CCCN1C(=O)[C@@H](N)CC(C)C)C(=O)O [F20A] (H-LPYAAGCL-OH),affinity in words,ComR WT [1],the affinity of the peptide decreases drastically
same,Kd,ComR WT [1],2.13 ± 0.226 µM
CC(C)C[C@H](NC(=O)[C@H](CS)NC(=O)CNC(=O)[C@H](C)NC(=O)[C@H](Cc1ccccc1)NC(=O)[C@H](C)NC(=O)[C@@H]1CCCN1C(=O)[C@@H](N)CC(C)C)C(=O)O [Y19A] (H-LPAFAGCL-OH),affinity in words,ComR WT [1],only little impact on the affinity of the protein
same,Kd,ComR WT [1],0.052 ± 0.013 µM
VPFFMIYY [type I peptide VPFFMIYY from S. vestibularis],in vivo activation efficiency / activation of ComR,[2],more efficiently activated by the type II peptide MGLDWWSL from S. mutans than by the type I peptide VPFFMIYY
MGLDWWSL [type II peptide MGLDWWSL from S. mutans],in vivo activation efficiency / activation of ComR,[2],more efficiently activated by the type II peptide MGLDWWSL from S. mutans than by the type I peptide VPFFMIYY
LAYFYPEL [casein-derivative peptide LAYFYPEL],in vivo activation efficiency / activation of ComR,[2],inactive
"ComS18-24: heptapeptide ComS18-24 lacking the N-terminal Leucine, minimal active form of the signaling peptide (PYFAGCL)",activity of heptapeptide ComS18-24,[2],also fully active
same,activity of heptapeptide ComS18-24,[2]; listed as heptapeptide 18–24,minimal active form of the signaling peptide
CC(C)C[C@H](N)C(=O)N1CCC[C@H]1C(=O)N[C@@H](Cc1ccc(O)cc1)C(=O)N[C@@H](Cc1ccccc1)C(=O)N[C@@H](C)C(=O)NCC(=O)N[C@@H](CS)C(=O)N[C@@H](C)C(=O)O [L24A] (H-LPYFAGCA-OH),affinity in words,ComR WT [1],the affinity of the peptide decreases drastically
same,Kd,ComR WT [1],1.55 ± 0.332 µM
GAWYYVPL [casein-derived octapeptide GAWYYVPL],in vivo activation efficiency / activation of ComR,[2],also activated
LPYFAGCA [XIP L24A variant (ComS 17-24 with L24A)],Kd,[3],1.55 µM
same,stoichiometry N,[3],1.75
LPYAAGCL [XIP F20A variant (ComS 17-24 with F20A)],Kd,[3],2.13 µM
same,stoichiometry N,[3],1.2
B1,binding result,ComR WT [4],binds
LPAFAGCL [XIP Y19A variant (ComS 17-24 with Y19A)],Kd,[3],0.052 µM
same,stoichiometry N,[3],1.5
"LPYFAGCL [XIP octapeptide (ComS 17-24, LPYFAGCL) from Streptococcus thermophilus LMD-9]",Kd,[5],0.244 µM
same,stoichiometry N,[5],0.7
same,Kd,[6],0.01 µM
same,stoichiometry N,[6],0.8
same,Kd,[7],1.18 µM
same,stoichiometry N,[7],0.8
same,Kd,[8],0.087 µM
same,stoichiometry N,[8],1.1
same,Kd,[9],0.277 µM
same,stoichiometry N,[9],1.2
same,Kd,[10],0.009 µM
same,stoichiometry N,[10],0.8
same,Kd,[11],0.141 µM
same,stoichiometry N,[11],0.9
same,Kd,[3],0.008 µM
same,stoichiometry N,[3],1.1
